According to the supplement of paper PMC7877785:
± gives the uncertainty stated by the source.

Assay: self-splicing fitness, log relative to wild type (ln ratio); higher = more splicing; Tetrahymena group I intron in knt gene, E. coli kanamycin selection, DiMSum; sequences stand for … in CUCUCU…GGAGGGAAAAGUUAUCAGGCAUGCACCUGGUAGCUAGUCUUUAAACCAAUAGAUUGCAUCGGUUUAAAAGGCAAGACCGUCAAAUUGCGGGAAAGGGGUCAACAGCCGUUCAGUACCAAGUCUCAGGGGAAACUUUGAGAUGGCCUUGCAAAGGGUAUGGUAAUAAGCUGACGGACAUGGUCCUAACCACGCAGCCAAGUCCUAAGUCAACAGAUCUUCUGUUGAUAUGGAUGCAGUUCACAGACUAAAUGUCGGUCGGGGAAGAUGUAUUCUUCUCAUAAGAUAUAGUCGGACCUCUCCUUAAUGGGAGCUAGCGGAUGAAGUGAUGCAACACUGGAGCCGCUGGGAACUAAUUUGUAUGCGAAAGUAUAUUGAUUAGUUUUGGAGUACUCGUGGUCG
In short: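 Six replicate transformations of E. coli BL21(DE3) with a pET-22b(+) library were grown overnight at 37°C or 30°C. The library randomised all eight P1ex-region intron nucleotides, the intron lying in the knt kanamycin-resistance gene, and plates were LB agar with or without 25 μg/mL kanamycin plus 100 μg/mL carbenicillin, 50 μM IPTG and 0.2% rhamnose. Pooled colonies were amplicon-sequenced on an Illumina HiSeq 2500, and fitness is the DiMSum error-weighted combination of wild-type-normalised replicate fold changes, kanamycin versus none.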

| Sequence | self-splicing fitness (ln) (30 °C) | self-splicing fitness (ln) (37 °C) |
| --- | --- | --- |
| UCACAGCAAUAUUACGGUAA | -1 ± 0.084 | -0.187 ± 0.088 |
| UCACAGCAAUAUUACGUACU | -2.82 ± 0.17 | -2.09 ± 0.22 |
| UCACAGCAAUAUUACGUAGA | -1.09 ± 0.063 | -0.0941 ± 0.075 |
| UCACAGCAAUAUUACGUCCG | -1.21 ± 0.086 | -0.358 ± 0.098 |
| UCACAGCAAUAUUACGUUCC | -3.38 ± 0.21 | -1.47 ± 0.22 |
| UCACAGCAAUAUUACGUUGG | -2.84 ± 0.11 | -2.81 ± 0.18 |
| UCAGAGCAAUAUUACGAACU | -2.02 ± 0.33 |  |
| UCAGAGCAAUAUUACGAGUG | -2.93 ± 0.29 | -0.458 ± 0.17 |
| UCAGAGCAAUAUUACGAUGG | -2.97 ± 0.21 | -1.33 ± 0.2 |
| UCAGAGCAAUAUUACGCGAU | -3.02 ± 0.26 | -2.08 ± 0.4 |
| UCAGAGCAAUAUUACGCGUA | -2.57 ± 0.32 | -0.569 ± 0.16 |
| UCAGAGCAAUAUUACGGAAU | -2.94 ± 0.17 | -2.22 ± 0.15 |
| UCAGAGCAAUAUUACGGAUC |  | -2.15 ± 0.33 |
| UCAGAGCAAUAUUACGGGCU | -4.78 ± 0.36 | -2.46 ± 0.25 |
| UCAGAGCAAUAUUACGGGGC | -3.3 ± 0.26 | -2.42 ± 0.41 |
| UCAGAGCAAUAUUACGUAAC | -2.5 ± 0.26 |  |
| UCAGAGCAAUAUUACGUAAG | -2.92 ± 0.14 | -1.82 ± 0.13 |
| UCAGAGCAAUAUUACGUAGA | -0.896 ± 0.075 | 0.113 ± 0.12 |
| UCAGAGCAAUAUUACGUCAU | -3.84 ± 0.35 |  |
| UCAGAGCAAUAUUACGUCGG | -1.87 ± 0.2 | -0.479 ± 0.16 |
| UCAGAGCAAUAUUACGUCUC | -2.81 ± 0.34 |  |
| UCAGAGCAAUAUUACGUGGG | -3.2 ± 0.16 | -1.96 ± 0.14 |
| UCAGAGCAAUAUUACGUGGU | -4.35 ± 0.39 | -1.78 ± 0.22 |
| UCAGAGCAAUAUUACGUUAG | -3.86 ± 0.42 | -3.25 ± 0.35 |
| UCAGAGCAAUAUUACGUUCG | -1.54 ± 0.11 | -1.07 ± 0.15 |

| Sequence | self-splicing fitness (ln) (30 °C) | self-splicing fitness (ln) (37 °C) |
| --- | --- | --- |
| UCAUAGCAAUAUUACGAAGA | -2.06 ± 0.36 | -1.56 ± 0.38 |
| UCAUAGCAAUAUUACGACGU | -1.76 ± 0.12 | -1.37 ± 0.15 |
| UCAUAGCAAUAUUACGAGAU | -3.85 ± 0.21 | -3.29 ± 0.26 |
| UCAUAGCAAUAUUACGAGGU | -2.98 ± 0.24 | -3.42 ± 0.32 |
| UCAUAGCAAUAUUACGAUCU | -3.02 ± 0.19 | -1.88 ± 0.18 |
| UCAUAGCAAUAUUACGAUGU | -2.55 ± 0.12 | -0.735 ± 0.1 |
| UCAUAGCAAUAUUACGCACA | -1.21 ± 0.13 | -0.159 ± 0.11 |
| UCAUAGCAAUAUUACGCAUA |  | -1.34 ± 0.47 |
| UCAUAGCAAUAUUACGCCCU | -2.75 ± 0.36 |  |
| UCAUAGCAAUAUUACGCGGG | -2.79 ± 0.14 | -1.99 ± 0.12 |
| UCAUAGCAAUAUUACGCUCC | -2.92 ± 0.31 | -0.786 ± 0.27 |
| UCAUAGCAAUAUUACGCUUU | -3.91 ± 0.24 | -2.41 ± 0.25 |
| UCAUAGCAAUAUUACGGAGG | -3.54 ± 0.31 | -2.82 ± 0.2 |
| UCAUAGCAAUAUUACGGCAC | -2.93 ± 0.5 | -2.15 ± 0.37 |
| UCAUAGCAAUAUUACGGCAU | -3.91 ± 0.35 | -2.04 ± 0.23 |
| UCAUAGCAAUAUUACGGCUC | -2.73 ± 0.24 | -1.78 ± 0.26 |
| UCAUAGCAAUAUUACGGGCC |  | -3.67 ± 0.46 |
| UCAUAGCAAUAUUACGGGGC |  | -3.14 ± 0.37 |
| UCAUAGCAAUAUUACGGUAC |  | -3.21 ± 0.33 |
| UCAUAGCAAUAUUACGGUGG | -3.13 ± 0.15 | -2.07 ± 0.17 |
| UCAUAGCAAUAUUACGUCGA | -0.314 ± 0.093 | -0.745 ± 0.13 |
| UCAUAGCAAUAUUACGUUUG | -3.04 ± 0.18 | -1.84 ± 0.2 |
| UCCAAGCAAUAUUACGACGC | -2.45 ± 0.18 | -1.25 ± 0.14 |
| UCCAAGCAAUAUUACGACUC | -3.4 ± 0.29 | -2.62 ± 0.24 |
| UCCAAGCAAUAUUACGAGAA | -0.789 ± 0.16 | -0.569 ± 0.17 |

| Sequence | self-splicing fitness (ln) (30 °C) | self-splicing fitness (ln) (37 °C) |
| --- | --- | --- |
| UCCAAGCAAUAUUACGAGAG | -2.32 ± 0.12 | -1.85 ± 0.14 |
| UCCAAGCAAUAUUACGAGCC | -2.51 ± 0.49 | -1.88 ± 0.29 |
| UCCAAGCAAUAUUACGAGUC | -3.66 ± 0.19 | -2.97 ± 0.24 |
| UCCAAGCAAUAUUACGAUAC | -3.99 ± 0.42 | -1.11 ± 0.3 |
| UCCAAGCAAUAUUACGAUCA | -1.1 ± 0.14 | -0.861 ± 0.15 |
| UCCAAGCAAUAUUACGAUGU | -1.37 ± 0.057 | -0.338 ± 0.082 |
| UCCAAGCAAUAUUACGCAAU | -3.44 ± 0.22 | -2.71 ± 0.26 |
| UCCAAGCAAUAUUACGCCUU | -4.12 ± 0.22 | -2.98 ± 0.21 |
| UCCAAGCAAUAUUACGGAGA | -0.684 ± 0.087 | -0.415 ± 0.092 |
| UCCAAGCAAUAUUACGGAUU | -4.35 ± 0.2 | -3.1 ± 0.18 |
| UCCAAGCAAUAUUACGGCAG | -4.85 ± 0.46 | -2.84 ± 0.28 |
| UCCAAGCAAUAUUACGGCUG | -2.69 ± 0.15 | -3.33 ± 0.22 |
| UCCAAGCAAUAUUACGGGCU | -3.43 ± 0.14 | -1.95 ± 0.12 |
| UCCAAGCAAUAUUACGGUAG | -4.7 ± 0.41 | -2.21 ± 0.16 |
| UCCAAGCAAUAUUACGUCGA | -0.163 ± 0.075 | 0.376 ± 0.1 |
| UCCAAGCAAUAUUACGUGUA | -0.565 ± 0.043 | 0.504 ± 0.057 |
| UCCAAGCAAUAUUACGUUCG | -3.57 ± 0.27 | -2.2 ± 0.21 |
| UCCCAGCAAUAUUACGAACU | -3.52 ± 0.33 | -2.92 ± 0.43 |
| UCCCAGCAAUAUUACGAAGC | -3.98 ± 0.42 | -1.71 ± 0.24 |
| UCCCAGCAAUAUUACGACGU | -1.53 ± 0.071 | -0.16 ± 0.084 |
| UCCCAGCAAUAUUACGAUGC | -4.03 ± 0.3 | -3.29 ± 0.32 |
| UCCCAGCAAUAUUACGCCGC | -4.73 ± 0.32 | -3.05 ± 0.27 |
| UCCCAGCAAUAUUACGCGAA | -2.11 ± 0.16 | -1.07 ± 0.14 |
| UCCCAGCAAUAUUACGCGCG | -3.27 ± 0.17 | -2.98 ± 0.24 |
| UCCCAGCAAUAUUACGCUGU | -3.99 ± 0.23 | -2.18 ± 0.23 |

| Sequence | self-splicing fitness (ln) (30 °C) | self-splicing fitness (ln) (37 °C) |
| --- | --- | --- |
| UCCCAGCAAUAUUACGGCAC | -3.11 ± 0.12 | -1.88 ± 0.15 |
| UCCCAGCAAUAUUACGGCCA | -0.679 ± 0.095 | -0.115 ± 0.12 |
| UCCCAGCAAUAUUACGGCUC | -2.83 ± 0.14 | -2.31 ± 0.24 |
| UCCCAGCAAUAUUACGGGCC | -3.03 ± 0.22 | -1.7 ± 0.18 |
| UCCCAGCAAUAUUACGGGGG | -4 ± 0.18 | -3.66 ± 0.33 |
| UCCCAGCAAUAUUACGGGUU | -2.48 ± 0.07 | -1.54 ± 0.079 |
| UCCCAGCAAUAUUACGUAUU | -2.91 ± 0.2 | -3.28 ± 0.28 |
| UCCCAGCAAUAUUACGUCAA | -2.71 ± 0.18 | -1.13 ± 0.16 |
| UCCCAGCAAUAUUACGUCAG | -3.74 ± 0.16 | -2.83 ± 0.16 |
| UCCCAGCAAUAUUACGUGAC | -2.74 ± 0.15 | -3.06 ± 0.32 |
| UCCCAGCAAUAUUACGUGCG | -3.71 ± 0.15 | -2.93 ± 0.17 |
| UCCCAGCAAUAUUACGUGGA | -3.08 ± 0.14 | -1.95 ± 0.15 |
| UCCCAGCAAUAUUACGUGUG | -3.46 ± 0.094 | -2.32 ± 0.093 |
| UCCCAGCAAUAUUACGUUAC | -3.88 ± 0.22 | -2.72 ± 0.27 |
| UCCCAGCAAUAUUACGUUGC | -3.5 ± 0.27 | -2.06 ± 0.27 |
| UCCCAGCAAUAUUACGUUUC | -4.35 ± 0.34 | -2.4 ± 0.28 |
| UCCCAGCAAUAUUACGUUUG | -3.67 ± 0.11 | -2.91 ± 0.15 |
| UCCGAGCAAUAUUACGAACU |  | -2.3 ± 0.32 |
| UCCGAGCAAUAUUACGAAGA | -1.62 ± 0.21 | -1.12 ± 0.18 |
| UCCGAGCAAUAUUACGACAG | -3.18 ± 0.3 | -2.55 ± 0.3 |
| UCCGAGCAAUAUUACGACAU | -3.93 ± 0.031 | -2.98 ± 0.043 |
| UCCGAGCAAUAUUACGACGG | -1.46 ± 0.11 | -0.111 ± 0.17 |
| UCCGAGCAAUAUUACGAGCU |  | -2.68 ± 0.48 |
| UCCGAGCAAUAUUACGAGUA | -1.98 ± 0.16 | -1.1 ± 0.12 |
